# Source: patent US20260201028A1 (SINGAPORE HEALTH SERVICES PTE, published 2026)
# B1: humanized anti-TRPM4 antibody clone A2 (VH1 + VL1) (antibody, human IgG1, kappa, V domains shown)
# VH: QVQLQESGPGLVKPSQTLSLTCTVSGYSITSDYAWNWIRQHPGKGLEWIGYLSYSGVTSYNPSLKGRVTISVDTSKNQFSLKLSSVTAADTAVYYCARKGTYYRYEGSYWYFDVWGQGTTVTVSS
# VL: DIQMTQSPSSLSASVGDRVTITCHANQNIDVWLSWYQQKPGKAPKLLIYKTSNLHTGVPSRFSGSGSGTDFTFTISSLQPEDIATYYCQQGQSYPLTFGGGTKLEIKR
# Molecular target: human TRPM4 (transient receptor potential melastatin 4) in transfected HEK 293 cells (human, UniProt Q8TD43 1-1214)
# Test: cell-based or functional assay
# Sequence of human TRPM4 (transient receptor potential melastatin 4) in transfected HEK 293 cells (Q8TD43 whole entry): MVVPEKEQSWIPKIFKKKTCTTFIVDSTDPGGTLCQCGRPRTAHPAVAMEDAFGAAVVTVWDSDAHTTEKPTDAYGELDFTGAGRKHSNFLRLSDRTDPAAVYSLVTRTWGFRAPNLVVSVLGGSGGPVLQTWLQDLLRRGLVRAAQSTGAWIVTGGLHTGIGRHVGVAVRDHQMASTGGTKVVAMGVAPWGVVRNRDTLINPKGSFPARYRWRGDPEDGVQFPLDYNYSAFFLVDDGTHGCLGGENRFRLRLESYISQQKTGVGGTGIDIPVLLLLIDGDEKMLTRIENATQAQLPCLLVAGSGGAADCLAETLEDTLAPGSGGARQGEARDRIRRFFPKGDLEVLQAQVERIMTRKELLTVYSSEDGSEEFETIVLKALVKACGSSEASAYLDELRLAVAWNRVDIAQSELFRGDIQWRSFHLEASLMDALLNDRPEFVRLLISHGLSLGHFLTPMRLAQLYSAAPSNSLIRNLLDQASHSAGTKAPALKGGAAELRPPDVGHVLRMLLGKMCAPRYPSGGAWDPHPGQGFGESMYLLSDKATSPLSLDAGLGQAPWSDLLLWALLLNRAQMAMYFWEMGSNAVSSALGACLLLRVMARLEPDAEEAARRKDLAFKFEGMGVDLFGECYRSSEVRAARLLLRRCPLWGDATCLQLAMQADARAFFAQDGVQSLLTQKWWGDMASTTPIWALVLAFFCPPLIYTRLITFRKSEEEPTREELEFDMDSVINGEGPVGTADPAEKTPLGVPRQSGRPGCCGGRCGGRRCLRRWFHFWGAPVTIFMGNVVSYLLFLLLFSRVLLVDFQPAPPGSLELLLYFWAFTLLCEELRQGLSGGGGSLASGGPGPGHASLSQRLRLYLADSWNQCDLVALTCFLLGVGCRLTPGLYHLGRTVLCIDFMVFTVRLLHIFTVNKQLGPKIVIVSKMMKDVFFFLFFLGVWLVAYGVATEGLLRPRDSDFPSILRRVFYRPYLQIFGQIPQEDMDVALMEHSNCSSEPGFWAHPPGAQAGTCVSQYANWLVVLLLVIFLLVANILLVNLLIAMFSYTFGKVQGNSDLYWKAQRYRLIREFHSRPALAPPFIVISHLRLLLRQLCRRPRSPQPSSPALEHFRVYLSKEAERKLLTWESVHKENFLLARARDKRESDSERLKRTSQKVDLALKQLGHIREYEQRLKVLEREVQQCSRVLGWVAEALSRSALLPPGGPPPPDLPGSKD
binder,measurement,value
B1,"IC50, dose-dependent inhibition of hypoxia-induced TRPM4 current increase",1.23 µg/mL
